Laboratory results from publication PMC4732765, “Long-Term Persistence of Bi-functionality Contributes to the Robustness of Microbial Life through Exaptation” (PLoS Genetics, 2016).

How the values were obtained:
Test in all cases: purified protein
purified protein [1] = substrate: O=C(O)c1ccccc1N[C@@H]1O[C@H](COP(=O)(O)O)[C@@H](O)[C@H]1O; type: biochemical, synthetic construct; conditions: 25 °C, TrpF reaction, PRA generated in situ from anthranilate and excess PRPP with yeast anthranilate phosphoribosyl transferase, enzyme shows hysteresis
purified protein [2] = substrate: NC(=O)c1ncn([C@@H]2O[C@H](COP(=O)(O)O)[C@@H](O)[C@H]2O)c1N=CN[C@@H]1O[C@H](COP(=O)(O)O)[C@@H](O)[C@H]1O; type: biochemical, synthetic construct; conditions: 25 °C, HisA reaction, enzyme shows hysteresis
purified protein [3] = substrate: O=C(O)c1ccccc1N[C@@H]1O[C@H](COP(=O)(O)O)[C@@H](O)[C@H]1O; type: biochemical, Thermotoga maritima; conditions: 25 °C, TrpF reaction, PRA generated in situ from anthranilate and excess PRPP with yeast anthranilate phosphoribosyl transferase
purified protein [4] = substrate: NC(=O)c1ncn([C@@H]2O[C@H](COP(=O)(O)O)[C@@H](O)[C@H]2O)c1N=CN[C@@H]1O[C@H](COP(=O)(O)O)[C@@H](O)[C@H]1O; type: biochemical, Thermotoga maritima; conditions: 25 °C, HisA reaction
purified protein [5] = substrate: O=C(O)c1ccccc1N[C@@H]1O[C@H](COP(=O)(O)O)[C@@H](O)[C@H]1O; type: biochemical, Desulfovibrio desulfuricans; conditions: 25 °C, TrpF reaction, PRA generated in situ from anthranilate and excess PRPP with yeast anthranilate phosphoribosyl transferase
purified protein [6] = substrate: NC(=O)c1ncn([C@@H]2O[C@H](COP(=O)(O)O)[C@@H](O)[C@H]2O)c1N=CN[C@@H]1O[C@H](COP(=O)(O)O)[C@@H](O)[C@H]1O; type: biochemical, Desulfovibrio desulfuricans; conditions: 25 °C, HisA reaction
purified protein [7] = substrate: O=C(O)c1ccccc1N[C@@H]1O[C@H](COP(=O)(O)O)[C@@H](O)[C@H]1O; type: biochemical, Syntrophotalea carbinolica; conditions: 25 °C, TrpF reaction, PRA generated in situ from anthranilate and excess PRPP with yeast anthranilate phosphoribosyl transferase
purified protein [8] = substrate: NC(=O)c1ncn([C@@H]2O[C@H](COP(=O)(O)O)[C@@H](O)[C@H]2O)c1N=CN[C@@H]1O[C@H](COP(=O)(O)O)[C@@H](O)[C@H]1O; type: biochemical, Syntrophotalea carbinolica; conditions: 25 °C, HisA reaction

B1: CA-Bact-HisA (synthetic construct) (protein)
chain: MRIIPAIDLKDGRCVRLVQGDMEKATVYNDDPLEMAKQWVEQGAEWLHVVDLDGAFAGKPVNEDVIKEIAQKVSVKVQLGGGIRDLEDIEAYLDAGVDRVIIGTVAVKNPELVREMVEKYGERIVVGIDARDGMVAVKGWKETTEVKATDLAKRFEDAGVEAIIYTDIARDGMMQGPNIEAIRELAKAVSLPVIASGGVSSLEDIEALLAIEESGVAGVIVGKALYEGRLDLREALALAKKL
notes: synthetic gene in pET24a, His-tag (HisTrap), E. coli BL21-Gold (DE3)
- Km (purified protein [1]): 3.2 µM
- kcat (purified protein [1]): 0.00023 s⁻¹
- kcat/Km (purified protein [1]): 70 M⁻¹ s⁻¹
- Km (purified protein [2]): 0.5 µM
- kcat (purified protein [2]): 0.05 s⁻¹
- kcat/Km (purified protein [2]): 100000 M⁻¹ s⁻¹

B2: tmHisA (Thermotoga maritima MSB8) (protein)
chain: MLVVPAIDLFRGKVARMIKGRKENTIFYEKDPVELVEKLIEEGFTLIHVVDLSNAIENSGENLPVLEKLSEFAEHIQIGGGIRSLDYAEKLRKLGYRRQIVSSKVLEDPSFLKSLREIDVEPVFSLDTRGGRVAFKGWLAEEEIDPVSLLKRLKEYGLEEIVHTEIEKDGTLQEHDFSLTKKIAIEAEVKVLAAGGISSENSLKTAQKVHTETNGLLKGVIVGRAFLEGILTVEVMKRYAR
notes: full-length hisA in pET21a (NdeI/NotI), His-tag (HisTrap), E. coli BL21-CodonPlus-(DE3)-RIPL; heat step 70 °C
- Km (purified protein [3]): 60 µM
- Km (purified protein [4]): 5.6 µM
- kcat (purified protein [4]): 1 s⁻¹
- kcat/Km (purified protein [4]): 180000 M⁻¹ s⁻¹

B3: ddHisA (Desulfovibrio desulfuricans ATCC 27774) (protein)
chain: MIIFPAVDIQNGKAVRLKQGRAHESTVFAESPVDAARAWEEAGARWLHVVDLDGAFDGAAQSRRIVRDICAALAIPVQLGGGIRDMHTAEAYLEAGVSRLIIGTLALEQPTLFADMCRAFPGRVGVSLDAEGGRLKSRGWVEDTGMTVDTALPRLLDDGAAFVIYTDIERDGMQCGVNVAALEHLARLSTVPVIAAGGVATLEDIQKLYPLTLETSLMGAVSGRALYEGTLDLKEANAWIDARKNTPESA
notes: full-length hisA in pET24a (NdeI/XhoI), His-tag (HisTrap), E. coli T7 Express with pRARE
- Km (purified protein [5]): 161 µM
- kcat (purified protein [5]): 0.0023 s⁻¹
- kcat/Km (purified protein [5]): 14 M⁻¹ s⁻¹
- Km (purified protein [6]): 2.8 µM
- kcat (purified protein [6]): 1.3 s⁻¹
- kcat/Km (purified protein [6]): 460000 M⁻¹ s⁻¹

B4: pcHisA (Syntrophotalea carbinolica DSM 2380) (protein)
chain: MIVIPAIDLKEGRCVRLEQGLMEKDTVYNDNPGAQARSWQEQGGELLHIVDLDGAFAGVPRNRDAIRAIAEAVSIPTELGGGIRDLPTIEAYLELGIDRVILGTVAKENPELVREACRLFPGRIVVGIDARDGLVAVRGWADVTEKLATELAKEMEGFGVEAIIYTDIARDGMMGGPNLEATRALAESISVPVIASGGVSCLEDIARLMTIEDSGVTGVITGKALYTGSLDLREAVALTKGKA
notes: as for B3
- Km (purified protein [7]): 303 µM
- kcat (purified protein [7]): 0.001 s⁻¹
- kcat/Km (purified protein [7]): 3 M⁻¹ s⁻¹
- Km (purified protein [8]): 1.8 µM
- kcat (purified protein [8]): 0.4 s⁻¹
- kcat/Km (purified protein [8]): 220000 M⁻¹ s⁻¹
